Results from paper PMC9848473, “The structure of DarB in complex with Rel^NTD reveals nonribosomal activation of Rel stringent factors” (Science Advances, 2023).

Target: full-length Bacillus subtilis Rel (RelBs) (Bacillus subtilis)
Assay: cell-based or functional assay

rate of ^3H-ppGpp hydrolysis by RelBs saturated with DarB: 5.5 fold
B1: Bacillus subtilis DarB (natural protein, UniProt O31698 1-147, looked up)
chain: MISLQSDQLLEATVGQFMIEADKVAHVQVGNNLEHALLVLTKTGYTAIPVLDPSYRLHGLIGTNMIMNSIFGLERIEFEKLDQITVEEVMLTDIPRLHINDPIMKGFGMVINNGFVCVENDEQVFEGIFTRRVVLKELNKHIRSLNK
